Values of other authors in patent US20020019334A1, “Nutritional intervention composition for enhancing and extending satiety” (priority 2000, published 2002).

Details: injection, humans

B1: Cholecystokinin (peptide, UniProt P06307 21-115, looked up)
Cholecystokinin: QPVPPADPAGSGLQRAEEAPRRQLRVSQRTDGESRAHLGALLARYIQQARKAPSGRMSIVKNLQNLDPSHRISDRDYMGWMDFGRRSAEEYEYPS
modifications: Cholecystokinin
decrease of food intake: 16%
